Assay results published in patent US20240092914A1 (NEW PARADIGM BIOSCIENCES USA, published 2024).

T1: recombinant human BDCA2 extracellular domain (UniProt Q8WTT0, residues 45-213) (human, UniProt Q8WTT0 45-213)
T1 construct: range 45-213; also called recombinant BDCA2 proteins; BDCA2 proteins
T1 sequence (looked up): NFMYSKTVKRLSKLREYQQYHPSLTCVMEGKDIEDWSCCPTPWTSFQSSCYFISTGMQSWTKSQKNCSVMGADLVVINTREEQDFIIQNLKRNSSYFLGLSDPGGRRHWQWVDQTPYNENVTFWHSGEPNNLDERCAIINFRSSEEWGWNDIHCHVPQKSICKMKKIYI


Key:
[1] = biological target: T1, recombinant human BDCA2 extracellular …; assay: SPR (Biacore), antibody captured on anti-human Fc chip, recombinant BDCA2 flowed over; small-scale batch
Description: (§1) BDCA2 antibody binding kinetics were measured using a Biacore surface plasmon resonance (SPR) instrument (GE Life Sciences). Briefly, anti-BDCA2 antibodies were captured on an anti-human Fc chip. The recombinant BDCA2 proteins were then flowed over the captured antibodies over a range of concentrations, at a rate of 50 μL/minute. The data was analyzed to determine kinetic constants using the BIAevaluation software package (GE Life Sciences). The sensorgrams of SPR based affinity testing for all 24 antibodies are shown in FIG. 55, and the biophysical characteristics of all 24 antibodies are summarized in Table 5.

[2] = biological target: T1, recombinant human BDCA2 extracellular …; assay: SPR (Biacore), recombinant BDCA2; large-scale (100 mL) batch
Description: as §1

Row | Binder | Kd [1] [nM] | koff [1] [s⁻¹] | kon [1] [M⁻¹ s⁻¹] | Kd [2] [nM] | koff [2] [s⁻¹] | kon [2] [M⁻¹ s⁻¹]
1 | NPB-303_A (antibody, V domains shown, whole antibody captured by anti-human Fc) VH: EVQLVESGGGLVKPGGSLRLSCAASGFTFSTMSWVRQAPGKRLEWVASISSGGSTYYPDSVKGRFTISRDNAKNSLYLQMNSLRAEDTAVYYCARPSYEGYSSWFAYWGQGTLVTVSS VL: EIVLTQSPATLSLSPGERATLSCKASQSVDYDGDGFMNWYQQKPGQAPRLLIYTASNLESGVPARFSGSGSGTDFTLTISSLEPEDFAVYYCQQSNEDPWTFGGGTKVEIK | 1.01 | 0.000145 | 144000 | – | – | –
2 | NPB-303_D (antibody, V domains shown, whole antibody captured by anti-human Fc) VH: EVQLVESGGGLVKPGGSLRLSCAASGFTFSTMSWVRQAPGKRLEWVASISSGGSTYYPDSVKGRFTISRDNAKNSLYLQMNSLRAEDTAVYYCARPSYDGYSSWFAYWGQGTLVTVSS VL: EIVLTQSPATLSLSPGERATLSCKASQSVDYEGEGFMNWYQQKPGQAPRLLIYTASNLESGVPARFSGSGSGTDFTLTISSLEPEDFAVYYCQQSNEDPWTFGGGTKVEIK | 1.25 | 0.000144 | 115000 | – | – | –
3 | NPB-303_B.H (antibody, V domains shown, whole antibody captured by anti-human Fc) VH: EVQLVESGGGLVKPGGSLRLSCAASGFTFSTMSWVRQAPGKRLEWVASISSGGSTYYPDSVKGRFTISRDNAKNSLYLQMNSLRAEDTAVYYCARPSYDAYSSWFAYWGQGTLVTVSS VL: EIVLTQSPATLSLSPGERATLSCKASQSVDYSGSGFMNWYQQKPGQAPRLLIYTASNLESGVPARFSGSGSGTDFTLTISSLEPEDFAVYYCQQSNEDPWTFGGGTKVEIK | 3.47 | 0.000272 | 78500 | – | – | –
4 | NPB-303_C.F (antibody, V domains shown, whole antibody captured by anti-human Fc) VH: EVQLVESGGGLVKPGGSLRLSCAASGFTFSTMSWVRQAPGKRLEWVASISSGGSTYYPDSVKGRFTISRDNAKNSLYLQMNSLRAEDTAVYYCARPSYSGYSSWFAYWGQGTLVTVSS VL: EIVLTQSPATLSLSPGERATLSCKASQSVDYEGDAFMNWYQQKPGQAPRLLIYTASNLESGVPARFSGSGSGTDFTLTISSLEPEDFAVYYCQQSNEDPWTFGGGTKVEIK | 1.77 | 0.000195 | 110000 | – | – | –
5 | NPB-303_A.G (antibody, V domains shown, whole antibody captured by anti-human Fc) VH: EVQLVESGGGLVKPGGSLRLSCAASGFTFSTMSWVRQAPGKRLEWVASISSGGSTYYPDSVKGRFTISRDNAKNSLYLQMNSLRAEDTAVYYCARPSYEGYSSWFAYWGQGTLVTVSS VL: EIVLTQSPATLSLSPGERATLSCKASQSVDYDAEGFMNWYQQKPGQAPRLLIYTASNLESGVPARFSGSGSGTDFTLTISSLEPEDFAVYYCQQSNEDPWTFGGGTKVEIK | 0.998 | 0.000142 | 142000 | – | – | –
6 | NPB-303_C (antibody, V domains shown, whole antibody captured by anti-human Fc) VH: EVQLVESGGGLVKPGGSLRLSCAASGFTFSTMSWVRQAPGKRLEWVASISSGGSTYYPDSVKGRFTISRDNAKNSLYLQMNSLRAEDTAVYYCARPSYSGYSSWFAYWGQGTLVTVSS VL: EIVLTQSPATLSLSPGERATLSCKASQSVDYDGDGFMNWYQQKPGQAPRLLIYTASNLESGVPARFSGSGSGTDFTLTISSLEPEDFAVYYCQQSNEDPWTFGGGTKVEIK | 1.2 | 0.000165 | 138000 | – | – | –
7 | NPB-303_A.H (antibody, V domains shown, whole antibody captured by anti-human Fc) VH: EVQLVESGGGLVKPGGSLRLSCAASGFTFSTMSWVRQAPGKRLEWVASISSGGSTYYPDSVKGRFTISRDNAKNSLYLQMNSLRAEDTAVYYCARPSYEGYSSWFAYWGQGTLVTVSS VL: EIVLTQSPATLSLSPGERATLSCKASQSVDYSGSGFMNWYQQKPGQAPRLLIYTASNLESGVPARFSGSGSGTDFTLTISSLEPEDFAVYYCQQSNEDPWTFGGGTKVEIK | 1.49 | 0.000159 | 107000 | – | – | –
8 | NPB-303_A.D (antibody, V domains shown, whole antibody captured by anti-human Fc; Made at small (3 mL) and large (100 mL) scale) VH: EVQLVESGGGLVKPGGSLRLSCAASGFTFSTMSWVRQAPGKRLEWVASISSGGSTYYPDSVKGRFTISRDNAKNSLYLQMNSLRAEDTAVYYCARPSYEGYSSWFAYWGQGTLVTVSS VL: EIVLTQSPATLSLSPGERATLSCKASQSVDYEGEGFMNWYQQKPGQAPRLLIYTASNLESGVPARFSGSGSGTDFTLTISSLEPEDFAVYYCQQSNEDPWTFGGGTKVEIK | 1.06 | 0.000138 | 130000 | 0.927 | 0.000133 | 144000

Other lines, results leading:

Row | Kd [1] [nM] | koff [1] [s⁻¹] | kon [1] [M⁻¹ s⁻¹] | Kd [2] [nM] | koff [2] [s⁻¹] | kon [2] [M⁻¹ s⁻¹] | Binder
9 | 2.06 | 0.000193 | 93900 | – | – | – | NPB-303_B (antibody, V domains shown, whole antibody captured by anti-human Fc) VH: EVQLVESGGGLVKPGGSLRLSCAASGFTFSTMSWVRQAPGKRLEWVASISSGGSTYYPDSVKGRFTISRDNAKNSLYLQMNSLRAEDTAVYYCARPSYDAYSSWFAYWGQGTLVTVSS VL: EIVLTQSPATLSLSPGERATLSCKASQSVDYDGDGFMNWYQQKPGQAPRLLIYTASNLESGVPARFSGSGSGTDFTLTISSLEPEDFAVYYCQQSNEDPWTFGGGTKVEIK
10 | 1.89 | 0.000237 | 125000 | – | – | – | NPB-303_C.E (antibody, V domains shown, whole antibody captured by anti-human Fc) VH: EVQLVESGGGLVKPGGSLRLSCAASGFTFSTMSWVRQAPGKRLEWVASISSGGSTYYPDSVKGRFTISRDNAKNSLYLQMNSLRAEDTAVYYCARPSYSGYSSWFAYWGQGTLVTVSS VL: EIVLTQSPATLSLSPGERATLSCKASQSVDYDADAFMNWYQQKPGQAPRLLIYTASNLESGVPARFSGSGSGTDFTLTISSLEPEDFAVYYCQQSNEDPWTFGGGTKVEIK
11 | 1.74 | 0.000187 | 107000 | – | – | – | NPB-303_F (antibody, V domains shown, whole antibody captured by anti-human Fc) VH: EVQLVESGGGLVKPGGSLRLSCAASGFTFSTMSWVRQAPGKRLEWVASISSGGSTYYPDSVKGRFTISRDNAKNSLYLQMNSLRAEDTAVYYCARPSYDGYSSWFAYWGQGTLVTVSS VL: EIVLTQSPATLSLSPGERATLSCKASQSVDYEGDAFMNWYQQKPGQAPRLLIYTASNLESGVPARFSGSGSGTDFTLTISSLEPEDFAVYYCQQSNEDPWTFGGGTKVEIK
12 | 2.02 | 0.000197 | 97400 | – | – | – | NPB-303_C.H (antibody, V domains shown, whole antibody captured by anti-human Fc) VH: EVQLVESGGGLVKPGGSLRLSCAASGFTFSTMSWVRQAPGKRLEWVASISSGGSTYYPDSVKGRFTISRDNAKNSLYLQMNSLRAEDTAVYYCARPSYSGYSSWFAYWGQGTLVTVSS VL: EIVLTQSPATLSLSPGERATLSCKASQSVDYSGSGFMNWYQQKPGQAPRLLIYTASNLESGVPARFSGSGSGTDFTLTISSLEPEDFAVYYCQQSNEDPWTFGGGTKVEIK
13 | 4.77 | 0.000409 | 85600 | – | – | – | NPB-303_B.E (antibody, V domains shown, whole antibody captured by anti-human Fc) VH: EVQLVESGGGLVKPGGSLRLSCAASGFTFSTMSWVRQAPGKRLEWVASISSGGSTYYPDSVKGRFTISRDNAKNSLYLQMNSLRAEDTAVYYCARPSYDAYSSWFAYWGQGTLVTVSS VL: EIVLTQSPATLSLSPGERATLSCKASQSVDYDADAFMNWYQQKPGQAPRLLIYTASNLESGVPARFSGSGSGTDFTLTISSLEPEDFAVYYCQQSNEDPWTFGGGTKVEIK
14 | 1.41 | 0.000164 | 116000 | – | – | – | NPB-303_A.F (antibody, V domains shown, whole antibody captured by anti-human Fc) VH: EVQLVESGGGLVKPGGSLRLSCAASGFTFSTMSWVRQAPGKRLEWVASISSGGSTYYPDSVKGRFTISRDNAKNSLYLQMNSLRAEDTAVYYCARPSYEGYSSWFAYWGQGTLVTVSS VL: EIVLTQSPATLSLSPGERATLSCKASQSVDYEGDAFMNWYQQKPGQAPRLLIYTASNLESGVPARFSGSGSGTDFTLTISSLEPEDFAVYYCQQSNEDPWTFGGGTKVEIK
15 | 1.49 | 0.000183 | 123000 | – | – | – | NPB-303_A.E (antibody, V domains shown, whole antibody captured by anti-human Fc) VH: EVQLVESGGGLVKPGGSLRLSCAASGFTFSTMSWVRQAPGKRLEWVASISSGGSTYYPDSVKGRFTISRDNAKNSLYLQMNSLRAEDTAVYYCARPSYEGYSSWFAYWGQGTLVTVSS VL: EIVLTQSPATLSLSPGERATLSCKASQSVDYDADAFMNWYQQKPGQAPRLLIYTASNLESGVPARFSGSGSGTDFTLTISSLEPEDFAVYYCQQSNEDPWTFGGGTKVEIK
16 | 2.63 | 0.000286 | 109000 | – | – | – | NPB-303_B.G (antibody, V domains shown, whole antibody captured by anti-human Fc) VH: EVQLVESGGGLVKPGGSLRLSCAASGFTFSTMSWVRQAPGKRLEWVASISSGGSTYYPDSVKGRFTISRDNAKNSLYLQMNSLRAEDTAVYYCARPSYDAYSSWFAYWGQGTLVTVSS VL: EIVLTQSPATLSLSPGERATLSCKASQSVDYDAEGFMNWYQQKPGQAPRLLIYTASNLESGVPARFSGSGSGTDFTLTISSLEPEDFAVYYCQQSNEDPWTFGGGTKVEIK
17 | 1.31 | 0.000166 | 126000 | – | – | – | NPB-303_G (antibody, V domains shown, whole antibody captured by anti-human Fc) VH: EVQLVESGGGLVKPGGSLRLSCAASGFTFSTMSWVRQAPGKRLEWVASISSGGSTYYPDSVKGRFTISRDNAKNSLYLQMNSLRAEDTAVYYCARPSYDGYSSWFAYWGQGTLVTVSS VL: EIVLTQSPATLSLSPGERATLSCKASQSVDYDAEGFMNWYQQKPGQAPRLLIYTASNLESGVPARFSGSGSGTDFTLTISSLEPEDFAVYYCQQSNEDPWTFGGGTKVEIK
18 | 3.44 | 0.000232 | 67600 | – | – | – | NPB-303_B.F (antibody, V domains shown, whole antibody captured by anti-human Fc) VH: EVQLVESGGGLVKPGGSLRLSCAASGFTFSTMSWVRQAPGKRLEWVASISSGGSTYYPDSVKGRFTISRDNAKNSLYLQMNSLRAEDTAVYYCARPSYDAYSSWFAYWGQGTLVTVSS VL: EIVLTQSPATLSLSPGERATLSCKASQSVDYEGDAFMNWYQQKPGQAPRLLIYTASNLESGVPARFSGSGSGTDFTLTISSLEPEDFAVYYCQQSNEDPWTFGGGTKVEIK
